For test [1], the target named is BCRs of a CLL patient, which does not harbor IGLV3-21^R110 (human). The test is described as follows: flow cytometry; PBMCs of a patient with non-IGLV3-21^R110 CLL, co-stained with anti-CD19 (axis label anti-CD19 FITC).
The target of test [2] is IGHV4-39/IGLV3-21^R110 BCR on CLL B cells (PBMCs) of a patient (human). The test is described as follows: flow cytometry; PBMCs of a CLL patient with IGHV4-39/IGLV3-21^R110 BCR, co-stained with anti-CD19 VioBright515.
Test [3] addresses IGHV3-21/IGLV3-21^R110 BCR, membrane-bound on murine TKO cells (human). The test is described as follows: flow cytometry; cell mix A (1:1 IGHV3-21/IGLV3-21^R110 BCR TKO cells and BCR-negative TKO cells), co-stained with anti-IgM-PE. In general terms: A flow cytometer gives signals particle by particle.
In test [4] the target is IGHV3-21/IGLV3-21^G110 BCR, membrane-bound on murine TKO cells (human). The test is described as follows: flow cytometry; cell mix B (1:1 IGHV3-21/IGLV3-21^G110 BCR TKO cells and BCR-negative TKO cells), co-stained with anti-IgM-PE.

B1: mAb01-01 (antibody, V domains shown)
VH: QVQLQQSGPGLVQPSQSLSITCTVSGFSLTSYGIHWVRQSPGKGLEWLGVIWRGGGTDSNAAFMSRLSITKDNSKSQVFFKMNSLQADDTAIYYCARSRYDEEESMNYWGQGTSVTVSS
VL: QIVLTQSPASLSASVGETVTITCRASGNIHSYLAWYQQKQGKSPQLLVYNAKTLADGVPSRFSGSGSGTQYSLKINSLQPEDFGSYYCQHFWNTPPTFGAGTKLELKR
For B1, in test [1], the % of gated cells in Q5, anti-CD19 positive and mAb01-01-APC negative was 98.8%; the % of gated cells in Q6, anti-CD19 positive and mAb01-01-APC positive amounted to 0.28%. In test [2], this molecule gave a % of gated cells in Q5, anti-CD19 positive and mAb01-01-APC negative of 0.29%; a % of gated cells in Q6, anti-CD19 positive and mAb01-01-APC positive of 98.7%. In test [3], the % of gated cells (Gate P1) in Q1, anti-IgM-PE positive and mAb01-01-APC negative is 2.78%; the % of gated cells (Gate P1) in Q2, anti-IgM-PE positive and mAb01-01-APC positive worked out at 45.5%. In test [4], this molecule yielded a % of gated cells (Gate P1) in Q1, anti-IgM-PE positive and mAb01-01-APC negative of 42.2%; a % of gated cells (Gate P1) in Q2, anti-IgM-PE positive and mAb01-01-APC positive of 1.11%.

Source of the values: patent publication US20250145706A1.
